What all share (test): native gel or EMSA
Experiment [1] deals with CthedisKatG W90F (Chaetomium thermophilum var. dissitum).
For experiment [2], the target named is CthedisKatG W90V (Chaetomium thermophilum var. dissitum).
Experiment [3] deals with CthedisKatG, thermophilic catalase–peroxidase from Chaetomium thermophilum var. dissitum (wild type) (Chaetomium thermophilum var. dissitum).

One may read the stoichiometry N as a count of units in the complex or per binding partner. Regarding CthedisKatG W90F (enzyme), the stoichiometry N in experiment [1] was found to be 2.
For the substance CthedisKatG W90V (enzyme), the stoichiometry N in experiment [2] came out at 2.
Take “CthedisKatG, thermophilic catalase–peroxidase from Chaetomium thermophilum var. dissitum (wild type) (enzyme)”: the stoichiometry N in experiment [3] is 2.

The values are drawn from publication PMC10376177.
